± gives the uncertainty stated by the source.
Assay: amyloid nucleation score (Sup35N fusion, yeast selection) (log enrichment); library NNK2; higher = more nucleation; inactive = no reads after selection
How it was run: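 The nucleation score is a DiMSum log enrichment of output over input reads, centred on the mode score of non-aggregating sequences. Sequences under 100 input reads were excluded, and reads came from Illumina sequencing of plasmid inserts. Psi-negative yeast expressing Sup35N fused to peptides of 20 random codons were induced with 100 μM copper sulfate for 24 hours and grown 7 days at 30°C on medium lacking adenine and uracil. Random libraries had three technical output replicates.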
Substance SFRTLVP has an amyloid nucleation score of -0.905 ± 0.63. In the case of SFSHGSDAIGNVYCDNIVYK, the amyloid nucleation score is reported as “inactive”. In the case of SFSRSSAYVVHVLGYLEFRT, the amyloid nucleation score is reported as -0.004 ± 0.65. Work on SFTFCARNSGLIGWSGDISS yielded an amyloid nucleation score of 4.07 ± 0.1. Substance SFVAAEQIMASIEW has an amyloid nucleation score of 0.706 ± 0.29. Substance SFVVWTPWLSPSYACPRQIF has an amyloid nucleation score of -0.124 ± 0.76. In the case of SFWDRGFNIRQ, the amyloid nucleation score is reported as 6.145 ± 0.038. SFYRCGLNYCNGTS showed an amyloid nucleation score of 5.94 ± 0.06. In the case of SFYVNMSSFFRSLEEV, the amyloid nucleation score is reported as “inactive”. SGFEDVHAVVRFLIGVQYGG gave an amyloid nucleation score of -0.515 ± 1.1. SGFII showed an amyloid nucleation score of -1.18 ± 1.1. Work on SGISKTGLYASYWGYLSGGK yielded an amyloid nucleation score of -0.453 ± 0.27. Work on SGLFFTHTFRKLVYRLRSTK yielded an amyloid nucleation score of -1.08 ± 1.1. Substance SGLGGGFFSIVCYTHISVRE has an amyloid nucleation score of -0.069 ± 0.55. In the case of SGLIY, the amyloid nucleation score is reported as “inactive”. For SGMGSSYLFQFGSMYAFDDC, the amyloid nucleation score was 0.636 ± 0.34. Work on SGNIIFNRRMRRAALEWDIT yielded an amyloid nucleation score of -0.125 ± 0.63. Work on SGPVERFLILLIRCMNRLYV yielded an amyloid nucleation score of -1.19 ± 0.44. Work on SGQRQLCVWCVCVAGGRIKL yielded an amyloid nucleation score of 6.54 ± 0.076. With SGSRVYFQTPN the amyloid nucleation score was “inactive”. With SGTDDLCMVPLGYLLTMRLP the amyloid nucleation score was 0.7 ± 0.39. SGVAPVIMYCAIVCGGLHM showed an amyloid nucleation score of 8.517 ± 0.067. For SGVHNYSARVG, the amyloid nucleation score was -0.442 ± 0.46. Substance SGWELYP has an amyloid nucleation score of 1.91 ± 0.11. With SHCLNLGDLRVGYKSGM the amyloid nucleation score was “inactive”. SHCTLKNLV showed an amyloid nucleation score of -0.27 ± 1.1. With SHFFAQPGNGMRWCVRIKVC the amyloid nucleation score was 0.744 ± 0.8. SHLTNDVY gave an amyloid nucleation score of 0.614 ± 0.43. For SHSVKVMFNGLRVRL, the amyloid nucleation score was -0.216 ± 0.63. SHTPLTG gave an amyloid nucleation score of -0.939 ± 1. In the case of SIANYGFVLNNHIRFFRSSG, the amyloid nucleation score is reported as 2.32 ± 0.15. For SICVRKYVKFWVWAMNTLFR, the amyloid nucleation score was -0.174 ± 0.19. SIELNLPMFSIRVKMCSRGE gave an amyloid nucleation score of 2.53 ± 0.15. With SIFFC the amyloid nucleation score was 2.09 ± 0.09. SIFKSIWDYLIYRSLVSHPH gave an amyloid nucleation score of -0.305 ± 1. SIFLREDVVFSDLLRWFR showed an amyloid nucleation score of 5.572 ± 0.045. Substance SIINLTVPAHPHLNNPLRRQ has an amyloid nucleation score of 4.76 ± 0.075. Substance SIIYISWSVRHHYVKVG has an amyloid nucleation score of -0.666 ± 0.46. With SIKNHRDREILAMPGVSRSA the amyloid nucleation score was “inactive”. In the case of SILCLLNRLTFREYLMVFID, the amyloid nucleation score is reported as -0.583 ± 0.55. SINIYNFAQVSAFYCGLVEC gave an amyloid nucleation score of 5.45 ± 0.078. Work on SISCSADFVFNCSHGHNTVP yielded an amyloid nucleation score of 6.17 ± 0.069. SKDRCEVQLGKFTCLFMFDY gave an amyloid nucleation score of -1.47 ± 0.55. Substance SKFYLKRKSDISYIYASPWR has an amyloid nucleation score of 1.94 ± 0.06. SKHWTCS showed an amyloid nucleation score of 0.426 ± 0.57. Work on SKIVYFSYYTQM yielded an amyloid nucleation score of 6.775 ± 0.049. Substance SKLNAHVLAVFRLNEMNNHQ has an amyloid nucleation score of 3.48 ± 0.056. SKMICPHYK gave an amyloid nucleation score of 5.69 ± 0.071. SKMVDLVVNPQVYCLRRVFW gave an amyloid nucleation score of 2.9 ± 0.078. In the case of SKNSYSAHPKL, the amyloid nucleation score is reported as 4.83 ± 0.06. SKRDGVSSMIM showed an amyloid nucleation score of 4.25 ± 0.069. Substance SKSAPC has an amyloid nucleation score of 0.39 ± 0.29. Substance SKYGMFILGNRSNGDWFNMV has an amyloid nucleation score of -0.673 ± 0.48. SKYLCRICDPMHLNLFCRWQ gave an amyloid nucleation score of 4.11 ± 0.059. SLAPQMLPCHFSWILDPCC showed an amyloid nucleation score of -0.01 ± 1. With SLAYRFRWKLGNKVKF the amyloid nucleation score was 2.02 ± 0.1. SLCLGHYFHGTAYNWVVLYI showed an amyloid nucleation score of 0.213 ± 0.8. SLDFAFRFFSICVICGQNAR gave an amyloid nucleation score of 4.76 ± 0.082. Substance SLDQFSFGC has an amyloid nucleation score of 0.027 ± 0.65. With SLEGLLRPRKLVSCIDT the amyloid nucleation score was “inactive”. Work on SLEGLSCFTLANCLLR yielded an amyloid nucleation score of 0.288 ± 0.24. Work on SLEPYMFCSILINFYFFISV yielded an amyloid nucleation score of 3 ± 0.14. For SLGLGDVWGGQAYRSAGA, the amyloid nucleation score was 0.2 ± 0.28. For SLHLRRYIFNT, the amyloid nucleation score was 7.339 ± 0.059. For SLHVTGWFTSDVVFNLWVDV, the amyloid nucleation score was -0.145 ± 0.48. Substance SLIFSDPHLVIALNFT has an amyloid nucleation score of 8.898 ± 0.061. SLIVAIRFTA showed an amyloid nucleation score of 2.5 ± 0.24. SLLGRRIFWLCHEFMSSSLV gave an amyloid nucleation score of 0.21 ± 1. Substance SLLKNPASMCSNSIFCAYVG has an amyloid nucleation score of 8.708 ± 0.069. In the case of SLLSWRFVFCCMEYRVFLVV, the amyloid nucleation score is reported as “inactive”. In the case of SLLVDALR, the amyloid nucleation score is reported as 0.513 ± 0.39. In the case of SLMFKRRK, the amyloid nucleation score is reported as 0.317 ± 0.28. Work on SLNVVMGAD yielded an amyloid nucleation score of -1.15 ± 0.76. SLRMGFTKSVVARGAWRNWV gave an amyloid nucleation score of 4.1 ± 0.057. Work on SLTASCI yielded an amyloid nucleation score of -0.471 ± 0.76. For SLTFSGMP, the amyloid nucleation score was “inactive”. In the case of SLVLV, the amyloid nucleation score is reported as 0.803 ± 0.47. SLVTISFLGLFGSSSALVVA showed an amyloid nucleation score of -0.114 ± 1.1. SLWNIVRCRVENDSSGTQGF gave an amyloid nucleation score of -0.414 ± 0.5. Substance SLWTNTSWSAVVQNNWYGTF has an amyloid nucleation score of 6.94 ± 0.054. SLYDGRVVRMYSRH gave an amyloid nucleation score of 2.65 ± 0.1. SLYMFLVSALVQSYLLV gave an amyloid nucleation score of -1.4 ± 0.45. SLYVVQYCRSRYLVNCTDRV showed an amyloid nucleation score of 0.129 ± 0.33. SMCGSNAFLDTDRDVRHDDF showed an amyloid nucleation score of -1.05 ± 0.78. With SMEVAFSELSKVKRTTCVDY the amyloid nucleation score was “inactive”. SMFSRRNIQKSCFCYWNRLC showed an amyloid nucleation score of -0.418 ± 1.1. Work on SMHGSNVIWESFILRQEHDV yielded an amyloid nucleation score of -0.268 ± 0.31.

Reference: the supplement of paper PMC12042874
